T1: human FcγRIIa type R (human, UniProt P12318 36-217)
T1 construct: also called FcgRIIaR; FcγRIIa(R)
T1 chain: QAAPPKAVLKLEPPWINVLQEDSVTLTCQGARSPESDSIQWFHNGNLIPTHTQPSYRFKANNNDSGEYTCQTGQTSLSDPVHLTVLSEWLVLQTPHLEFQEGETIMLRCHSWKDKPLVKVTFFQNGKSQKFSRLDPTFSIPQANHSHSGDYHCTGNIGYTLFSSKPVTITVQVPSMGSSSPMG

T2: human FcγRIIa type H (human, UniProt P12318 36-217)
T2 construct: also called FcgRIIaH; FcγRIIa(H)
T2 sequence: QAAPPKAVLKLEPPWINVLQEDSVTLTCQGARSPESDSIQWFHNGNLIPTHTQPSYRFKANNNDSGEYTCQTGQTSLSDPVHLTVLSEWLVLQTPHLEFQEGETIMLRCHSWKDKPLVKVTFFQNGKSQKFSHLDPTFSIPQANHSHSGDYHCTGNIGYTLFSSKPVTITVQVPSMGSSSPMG


The binders below were run against T3, human FcγRIIIa(F) (human, UniProt P08637 17-208, limits assumed) (assay: SPR (Biacore), antibody captured, FcγR as analyte).
T3 construct: also called FcgRIIIaF; FcγRIIIa allotype F158
T3 sequence (P08637 other isoform, or with tags, fused parts or gaps limits assumed): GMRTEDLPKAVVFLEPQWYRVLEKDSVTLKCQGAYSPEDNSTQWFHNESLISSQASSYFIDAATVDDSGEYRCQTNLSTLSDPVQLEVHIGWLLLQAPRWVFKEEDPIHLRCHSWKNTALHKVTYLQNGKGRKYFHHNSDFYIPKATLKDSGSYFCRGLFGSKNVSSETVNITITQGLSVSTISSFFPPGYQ
Experimental: Interaction between each modified antibody and Fcγ receptor prepared in the manner described above was analyzed using the Biacore T100 (GE Healthcare), Biacore T200 (GE Healthcare), Biacore A100 or Biacore 4000. HBS-EP+ (GE Healthcare) was used for the running buffer, and measurements were carried out at 25° C. The chips used were chips in which antigen peptides, Protein A (Thermo Scientific), Protein A/G (Thermo Scientific) or Protein L (ACTIGEN or BioVision) were immobilized on the Series S Sensor Chip CM5 (GE Healthcare) or Series S Sensor Chip CM4 (GE Healthcare) by amine coupling, or chips in which preliminarily biotinylated antigen peptides were allowed to interact and then immobilized on the Series S Sensor Chip SA (certified) (GE Healthcare). The target antibodies were captured on these sensor chips, Fcγ receptor diluted with the running buffer was allowed to interact, followed by measurement of the amount of bound antibody. The amounts bound were compared between antibodies. However, since the amount of Fcγ receptor bound depends on the amount of captured antibody, the values used for comparison were first corrected by dividing the amount of Fcγ receptor bound by the captured amount of each antibody. Through reaction with 10 mM glycine-HCl at pH 1.5, the sensor chips were regenerated by washing off antibody captured on the sensor chips and used repeatedly.
Binding strength was evaluated according to the following method based on the results of analyzing the interaction with each FcγR. […] That value was then further multiplied by 100, and the resulting value was used as an indicator of relative binding activity to each FcγR.

| relative binding activity (amount bound / amount bound by GpH7-B3/GpL16-k0 x100) | Binder |
| --- | --- |
| 10 % of GpH7-B3/GpL16-k0 | GpH7-B3 Q295W / GpL16-k0 (antibody, human IgG1, B3 variant: anti-glypican-3 IgG1 (constant region B3 = G1d with K439E) with one substitution, EU numbering; also called B3 variant Q295W; copies: 2 + 2) heavy: not shown light: DIVMTQSPLSLPVTPGEPASISCQASESLVHSNRNTYLHWYLQKPGQSPQLLIYKVSNRFSGVPDRFSGSGSGTDFTLKISRVEAEDVGVYYCSQNTHVPPTFGQGTKVEIE |
| 71 % of GpH7-B3/GpL16-k0 | GpH7-B3 S298Y / GpL16-k0 (antibody, human IgG1, B3 variant: anti-glypican-3 IgG1 (constant region B3 = G1d with K439E) with one substitution, EU numbering; also called B3 variant S298Y; copies: 2 + 2) heavy: not shown light: DIVMTQSPLSLPVTPGEPASISCQASESLVHSNRNTYLHWYLQKPGQSPQLLIYKVSNRFSGVPDRFSGSGSGTDFTLKISRVEAEDVGVYYCSQNTHVPPTFGQGTKVEIE |
| 12 % of GpH7-B3/GpL16-k0 | GpH7-B3 Y300R / GpL16-k0 (antibody, human IgG1, B3 variant: anti-glypican-3 IgG1 (constant region B3 = G1d with K439E) with one substitution, EU numbering; also called B3 variant Y300R; copies: 2 + 2) heavy: not shown light: DIVMTQSPLSLPVTPGEPASISCQASESLVHSNRNTYLHWYLQKPGQSPQLLIYKVSNRFSGVPDRFSGSGSGTDFTLKISRVEAEDVGVYYCSQNTHVPPTFGQGTKVEIE |
| 68 % of GpH7-B3/GpL16-k0 | GpH7-B3 Q295N / GpL16-k0 (antibody, human IgG1, B3 variant: anti-glypican-3 IgG1 (constant region B3 = G1d with K439E) with one substitution, EU numbering; also called B3 variant Q295N; copies: 2 + 2) heavy: not shown light: DIVMTQSPLSLPVTPGEPASISCQASESLVHSNRNTYLHWYLQKPGQSPQLLIYKVSNRFSGVPDRFSGSGSGTDFTLKISRVEAEDVGVYYCSQNTHVPPTFGQGTKVEIE |
| 31 % of GpH7-B3/GpL16-k0 | GpH7-B3 P271T / GpL16-k0 (antibody, human IgG1, B3 variant: anti-glypican-3 IgG1 (constant region B3 = G1d with K439E) with one substitution, EU numbering; also called B3 variant P271T; copies: 2 + 2) heavy: not shown light: DIVMTQSPLSLPVTPGEPASISCQASESLVHSNRNTYLHWYLQKPGQSPQLLIYKVSNRFSGVPDRFSGSGSGTDFTLKISRVEAEDVGVYYCSQNTHVPPTFGQGTKVEIE |
| 59 % of GpH7-B3/GpL16-k0 | GpH7-B3 S298G / GpL16-k0 (antibody, human IgG1, B3 variant: anti-glypican-3 IgG1 (constant region B3 = G1d with K439E) with one substitution, EU numbering; also called B3 variant S298G; copies: 2 + 2) heavy: not shown light: DIVMTQSPLSLPVTPGEPASISCQASESLVHSNRNTYLHWYLQKPGQSPQLLIYKVSNRFSGVPDRFSGSGSGTDFTLKISRVEAEDVGVYYCSQNTHVPPTFGQGTKVEIE |
| 33 % of GpH7-B3/GpL16-k0 | GpH7-B3 P271Y / GpL16-k0 (antibody, human IgG1, B3 variant: anti-glypican-3 IgG1 (constant region B3 = G1d with K439E) with one substitution, EU numbering; also called B3 variant P271Y; copies: 2 + 2) heavy: not shown light: DIVMTQSPLSLPVTPGEPASISCQASESLVHSNRNTYLHWYLQKPGQSPQLLIYKVSNRFSGVPDRFSGSGSGTDFTLKISRVEAEDVGVYYCSQNTHVPPTFGQGTKVEIE |
| 87 % of GpH7-B3/GpL16-k0 | GpH7-B3 Q295S / GpL16-k0 (antibody, human IgG1, B3 variant: anti-glypican-3 IgG1 (constant region B3 = G1d with K439E) with one substitution, EU numbering; also called B3 variant Q295S; copies: 2 + 2) heavy: not shown light: DIVMTQSPLSLPVTPGEPASISCQASESLVHSNRNTYLHWYLQKPGQSPQLLIYKVSNRFSGVPDRFSGSGSGTDFTLKISRVEAEDVGVYYCSQNTHVPPTFGQGTKVEIE |
| 20 % of GpH7-B3/GpL16-k0 | GpH7-B3 S298R / GpL16-k0 (antibody, human IgG1, B3 variant: anti-glypican-3 IgG1 (constant region B3 = G1d with K439E) with one substitution, EU numbering; also called B3 variant S298R; copies: 2 + 2) heavy: not shown light: DIVMTQSPLSLPVTPGEPASISCQASESLVHSNRNTYLHWYLQKPGQSPQLLIYKVSNRFSGVPDRFSGSGSGTDFTLKISRVEAEDVGVYYCSQNTHVPPTFGQGTKVEIE |
| 25 % of GpH7-B3/GpL16-k0 | GpH7-B3 S298K / GpL16-k0 (antibody, human IgG1, B3 variant: anti-glypican-3 IgG1 (constant region B3 = G1d with K439E) with one substitution, EU numbering; also called B3 variant S298K; copies: 2 + 2) heavy: not shown light: DIVMTQSPLSLPVTPGEPASISCQASESLVHSNRNTYLHWYLQKPGQSPQLLIYKVSNRFSGVPDRFSGSGSGTDFTLKISRVEAEDVGVYYCSQNTHVPPTFGQGTKVEIE |
| 46 % of GpH7-B3/GpL16-k0 | GpH7-B3 Q295F / GpL16-k0 (antibody, human IgG1, B3 variant: anti-glypican-3 IgG1 (constant region B3 = G1d with K439E) with one substitution, EU numbering; also called B3 variant Q295F; copies: 2 + 2) heavy: not shown light: DIVMTQSPLSLPVTPGEPASISCQASESLVHSNRNTYLHWYLQKPGQSPQLLIYKVSNRFSGVPDRFSGSGSGTDFTLKISRVEAEDVGVYYCSQNTHVPPTFGQGTKVEIE |
| 49 % of GpH7-B3/GpL16-k0 | GpH7-B3 Q295Y / GpL16-k0 (antibody, human IgG1, B3 variant: anti-glypican-3 IgG1 (constant region B3 = G1d with K439E) with one substitution, EU numbering; also called B3 variant Q295Y; copies: 2 + 2) heavy: not shown light: DIVMTQSPLSLPVTPGEPASISCQASESLVHSNRNTYLHWYLQKPGQSPQLLIYKVSNRFSGVPDRFSGSGSGTDFTLKISRVEAEDVGVYYCSQNTHVPPTFGQGTKVEIE |

These binders were tested against T4, human FcγRIa (human, UniProt P12314 16-292, limits assumed) (assay: SPR (Biacore), FcγR over captured antibody; binding amount / that of IL6R-BF648/IL6R-L x100).
T4 construct: also called FcgRIa; CD64
T4 sequence (P12314 16-292 limits assumed): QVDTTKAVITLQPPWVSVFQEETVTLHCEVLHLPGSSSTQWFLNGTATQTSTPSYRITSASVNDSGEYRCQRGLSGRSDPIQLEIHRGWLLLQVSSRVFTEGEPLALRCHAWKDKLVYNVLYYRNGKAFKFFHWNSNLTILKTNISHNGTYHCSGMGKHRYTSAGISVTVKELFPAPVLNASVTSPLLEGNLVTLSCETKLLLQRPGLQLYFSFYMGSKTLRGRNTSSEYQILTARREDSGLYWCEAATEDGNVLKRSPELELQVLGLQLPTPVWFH
Experimental: (§1) According to the following method, relative binding activities were calculated for the results of analyzing interactions with the respective FcγRs.

| relative binding activity | Binder |
| --- | --- |
| 104 % of IL6R-BF648/IL6R-L | IL6R-BP130/IL6R-L (antibody, human IgG1) heavy: QVQLQESGPGLVKPSETLSLTCAVSGHSISHDHAWSWVRQPPGEGLEWIGFISYSGITNYNPSLQGRVTISRDNSKNTLYLQMNSLRAEDTAVYYCARSLARTTAMDYWGEGTLVTVSSASTKGPSVFPLAPSSKSTSGGTAALGCLVKDYFPEPVTVSWNSGALTSGVHTFPAVLQSSGLYSLSSVVTVPSSSLGTQTYICNVNHKPSNTKVDKKVEPKSCDKTHTCPPCPAPDLLGGDSVFLFPPKPKDTLMISRTPEVTCVVVDVSHEDPEVKFNWYVDGVEVHNAKTKPREEQYNSTYRVVSVLTVLHQDWLNGKEYKCKMSNKALPKPIEKTISKAKGQPREPQVYTLPPSRDELTKNQVSLTCLVKGFYPSDIAVEWESNGQPENNYKTTPPVLDSDGSFFLYSKLTVDKSRWQQGNVFSCSVMHEALHNHYTQESLSLSP light: DIQMTQSPSSLSASVGDRVTITCRASQDISSYLNWYQQKPGKAPKLLIYYTSRLHSGVPSRFSGSGSGTDFTFTISSLQPEDIATYYCQQGNTLPYTFGQGTKVEIK |

Target: T1, human FcγRIIa type R
Experiment: as above
Experimental: as §1

| relative binding activity | Binder |
| --- | --- |
| 272 % of IL6R-BF648/IL6R-L | IL6R-BP130/IL6R-L (antibody, human IgG1) heavy: QVQLQESGPGLVKPSETLSLTCAVSGHSISHDHAWSWVRQPPGEGLEWIGFISYSGITNYNPSLQGRVTISRDNSKNTLYLQMNSLRAEDTAVYYCARSLARTTAMDYWGEGTLVTVSSASTKGPSVFPLAPSSKSTSGGTAALGCLVKDYFPEPVTVSWNSGALTSGVHTFPAVLQSSGLYSLSSVVTVPSSSLGTQTYICNVNHKPSNTKVDKKVEPKSCDKTHTCPPCPAPDLLGGDSVFLFPPKPKDTLMISRTPEVTCVVVDVSHEDPEVKFNWYVDGVEVHNAKTKPREEQYNSTYRVVSVLTVLHQDWLNGKEYKCKMSNKALPKPIEKTISKAKGQPREPQVYTLPPSRDELTKNQVSLTCLVKGFYPSDIAVEWESNGQPENNYKTTPPVLDSDGSFFLYSKLTVDKSRWQQGNVFSCSVMHEALHNHYTQESLSLSP light: DIQMTQSPSSLSASVGDRVTITCRASQDISSYLNWYQQKPGKAPKLLIYYTSRLHSGVPSRFSGSGSGTDFTFTISSLQPEDIATYYCQQGNTLPYTFGQGTKVEIK |

The binders below were run against T2, human FcγRIIa type H in the same assay as above.
Experimental: as §1

| relative binding activity | Binder |
| --- | --- |
| 224 % of IL6R-BF648/IL6R-L | IL6R-BP130/IL6R-L (antibody, human IgG1) heavy: QVQLQESGPGLVKPSETLSLTCAVSGHSISHDHAWSWVRQPPGEGLEWIGFISYSGITNYNPSLQGRVTISRDNSKNTLYLQMNSLRAEDTAVYYCARSLARTTAMDYWGEGTLVTVSSASTKGPSVFPLAPSSKSTSGGTAALGCLVKDYFPEPVTVSWNSGALTSGVHTFPAVLQSSGLYSLSSVVTVPSSSLGTQTYICNVNHKPSNTKVDKKVEPKSCDKTHTCPPCPAPDLLGGDSVFLFPPKPKDTLMISRTPEVTCVVVDVSHEDPEVKFNWYVDGVEVHNAKTKPREEQYNSTYRVVSVLTVLHQDWLNGKEYKCKMSNKALPKPIEKTISKAKGQPREPQVYTLPPSRDELTKNQVSLTCLVKGFYPSDIAVEWESNGQPENNYKTTPPVLDSDGSFFLYSKLTVDKSRWQQGNVFSCSVMHEALHNHYTQESLSLSP light: DIQMTQSPSSLSASVGDRVTITCRASQDISSYLNWYQQKPGKAPKLLIYYTSRLHSGVPSRFSGSGSGTDFTFTISSLQPEDIATYYCQQGNTLPYTFGQGTKVEIK |
